In publication PMC5967863:

Target: full-length human TRPC3 (human) (UniProt Q13507)
Test: cryo-EM structure; purified TRPC3 at 5 mg/mL in 20 mM Tris 8.0, 500 mM NaCl, 1 mM EDTA, 0.1% digitonin; single-particle reconstruction with C4 symmetry, 3.3 Å

stoichiometry N: 4
Substance: full-length human TRPC3 (from UniProt Q13507 1-921) (natural protein)
